Measurements published in patent US20070081998A1 (published 2007).

Experiments:
[1] = molecular target: biotinylated ADDL (bADDL) (UniProt P05067 672-713, N-terminal biotin); assay: cell-based or functional assay
biotin-Aβ1-20 = molecular target: T1, biotin-Aβ1-20 (UniProt P05067 672-691, not fully specified; biotin (site not stated)); assay: BIACORE
T1 construct: domain: Aβ1-20; BIACORE antigen standing for monomeric Aβ peptide; also called biotinylated-Aβ1-20
T1 peptide (looked up): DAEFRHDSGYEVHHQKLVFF

[2] = molecular target: T2, Aβ-derived diffusible ligands (ADDLs) (UniProt P05067 672-713); assay: ELISA; reference is binding of the same antibody to Aβ40 monomer
T2 construct: domain: Aβ1-42; Soluble oligomers of Aβ1-42
Method: Affinity maturation was carried out to improve affinity and improve preferential binding to ADDL. To evaluate ADDL binding affinity of the humanized antibodies, BIACORE™ and titration ELISAs were conducted as disclosed herein. Briefly, Streptavidin-coated, 96-well microtiter plates (Sigma, St. Louis, Mo.) were coated with 10% biotinylated ADDL antigen (1 μM). A series of 2-fold dilutions of purified antibody, starting at 500 ng/mL was added to the ADDL captured plates and the plates were incubated for 2 hours at 25° C. […] A rabbit anti-goat IgG (H+L) HRP-conjugated (Bethyl Laboratories, Inc., Montgomery, Tex.) detection antibody was then added at a 1/2000 dilution in blocking solution and incubated for 1 hour at room temperature. After washing with PBS, HRP substrate, 3,3′,5′5-tetramethylbenzidine (ready-to-use TMB; Sigma, St. Louis, Mo.) was added and the reaction was stopped after 10 minutes with 0.5 N H₂SO₄. Absorbance at wavelength of 450 nm was read in a plate reader (model VICTOR V; Perkin Elmer, Boston, Mass.) and data were processed using EXCEL® work sheet.

B1: Hu20C2A3 (veneered version of clone A3, IgG2m4 isotype) (antibody, V domains shown)
VH: QVTLKESGPGLLKPTQTLTLTCTLSGFSLSTSGMGVGWFRQPPGKGLEWLAHIWWDDDKSYNPSLKSRLTISKDTSKNQVVLTITNVDPVDTATYYCARRQLGTRGTDAMDYWGQGTTVTVSS
VL: DVVMTQTPLSLPVTPGQPASISCRSSQSILHSNGNTYLEWYLQKPGQSPQLLIYKVSNRFSGVPDRFSGSGSGTDFTLKISRVEAEDVGVYYCLQTTRVPLTFGQGTKLEIKR
notes: to be checked against the listing; also called Hu20C2A3 produced in CHO; Hu20C2A3 produced in Pichia
[1]
  inhibition of bADDL binding to primary hippocampal neurons (alkaline phosphatase-streptavidin luminescence): 0.16 antibody to peptide ratio
biotin-Aβ1-20
  binding result: binds
[2]
  fold preference for ADDL binding versus Aβ40 monomer binding: 6 fold
